{
  "source": "paper PMC3399765",
  "about": "(2011)",
  "binders": {"B1": {"name": "FBP21 WW domains (protein)", "chain": "DPSKGRWVEGITSEGYHYYYDLISGASQWEKPEGFQGDLKKTAVKTVWVEGLSEDGFTYYYNTETGESRWEKPDD"}},
  "target": "SMB20 peptide (Homo sapiens, UniProt P14678)",
  "test": "ITC",
  "data": [
    {"binder": "B1", "values": [
      {"measurement": "Kd", "value": 16.4, "unit": "µM"}
    ]}
  ]
}
